Experimental data from publication PMC6166240.
Like-named read-outs stand apart in the source and are kept apart here.

Legend:
Test in all cases: X-ray crystallography
[1] = biological target: T1, AbdB homeodomain with W motif (crystal construct);Exd homeodomain (crystal construct) (Drosophila;Drosophila, UniProt P09087-2;P40427 ;, |)
[2] = biological target: AbdB homeodomain with W motif (crystal construct) (Drosophila, UniProt P09087-2)
[3] = biological target: T1, AbdB homeodomain with W motif (crystal …); remark: listed apart in the source
[4] = biological target: T1, AbdB homeodomain with W motif (crystal …); remark: listed apart in the source
[5] = biological target: T1, AbdB homeodomain with W motif (crystal …); remark: listed apart in the source

T1 sequence (P09087 369-452, chain 1 of 2): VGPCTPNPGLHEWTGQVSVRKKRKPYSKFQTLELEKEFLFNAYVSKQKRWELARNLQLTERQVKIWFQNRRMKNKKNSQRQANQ
T1 sequence (P40427 237-310, chain 2 of 2): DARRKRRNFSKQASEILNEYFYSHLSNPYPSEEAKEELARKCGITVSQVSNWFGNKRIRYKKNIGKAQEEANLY
AbdB homeodomain with W motif (crystal construct), sequence (P09087 369-452): as the sequence (P09087 369-452, chain 1 of 2) above

B1: black (crystal) (dsDNA)
DNA 1: GCATGATAAATGAC
DNA 2: GTCATTTATCATGC
B1: binds [1]; binds [2].

B2: red (crystal) (dsDNA)
DNA 1: GCATGATTTATGAC
DNA 2: GTCATAAATCATGC
B2: binds [3].

B3: magenta (crystal) (dsDNA)
DNA 1: GCATGATTACGAC
DNA 2: GTCGTAATCATGC
B3: binds [4].

B4: blue (crystal) (dsDNA)
DNA 1: GCATGATTAATGAC
DNA 2: GTCATTAATCATGC
B4: binds [5].
